Laboratory results: article PMC7510528 (Cell, 2020)

Biological target: T1, RBD-Fc (RBD-SD1 part of SARS-CoV2-S1, amino acids 319-591, fused to the constant region of rabbit IgG1 heavy … (SARS-CoV-2 (reference sequence, …, UniProt P0DTC2)))
T1 construct: source: HEK293T, cell culture supernatant, immobilized onto plates via anti-rabbit IgG
Test: ELISA
Conditions: partners not purified

B1: HK CV07-202 (antibody, V domains shown)
VH: EVQLVESGGGLIQPGGSLRLSCAASGFTVSSNYMSWVRQAPGKGLEWISVIYSGGSTFYADSVKGRFTISRDNSKNTLYLQMNSLRAEDTAVYYCARDLYYYGMDVWGQGTTVTVSS
VL: DIQLTQSPSFLSASVGDRVTITCRASQGISSYLAWYQQKPGKAPKLLIYAASTLQSGVPSRFSGSGSGTEFTLTISSLQPEDFATYYCQQLNNYSVTFGGGTKVEIK
  binding result: binds
